In paper PMC11121168:

Test system: CC[C@H](NC(=O)OC(C)(C)C)C(=O)N[C@H](C(=O)N[C@@H](CC(C)C)C(=O)N[C@@H](CCC(N)=O)C(=O)Nc1ccc2c(C)cc(=O)oc2c1)C(C)(C)C
Assay: purified protein, by the assay type
Conditions: pH 7.2; 37.0 °C

In the case of “C-terminally His-tagged SARS-CoV-2 Mpro (Severe acute respiratory syndrome coronavirus 2)”, the Km is reported as 85.2 ± 5.6 µM.
